Measured values from the supplement of paper PMC5998384.

What was measured:
HeLa Kyoto [1] = experiment: solubility in G1/S (NP-40 vs SDS abundance) (log2 ratio); higher = more soluble; settings: cell cycle stage: G1/S
HeLa Kyoto [2] = experiment: melting temperature (median over replicates), in situ; higher = more thermally stable
HeLa Kyoto [3] = experiment: solubility change mitosis vs G1/S (difference of NP-40 vs SDS log2 ratios) (log2 ratio difference); higher = more soluble in mitosis
HeLa Kyoto [4] = experiment: thermal stability score vs G1/S (z-score of summed log2 fold changes over temperatures); higher = more thermally stable than in G1/S
[5] = cell cycle stage: early G1 (4.5 h after nocodazole release)
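For melting temperature (median over replicates), in situ in this document: HeLa Kyoto cells synchronized by double thymidine or nocodazole block, proteins quantified by TMT10plex mass spectrometry, three independent biological replicates.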
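For solubility change mitosis vs G1/S (difference of NP-40 vs SDS log2 ratios) in this document: synchronized HeLa Kyoto cells (double thymidine block for G1/S, nocodazole release for mitosis), protein amounts in NP-40 versus SDS lysates quantified by mass spectrometry, three biological replicates.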
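For solubility in G1/S (NP-40 vs SDS abundance) in this document: HeLa Kyoto cells arrested at G1/S by double thymidine block, proteins quantified by TMT10plex mass spectrometry in mild NP-40 versus SDS extracts, three biological replicates.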
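For thermal stability score vs G1/S (z-score of summed log2 fold changes over temperatures) in this document: synchronized HeLa Kyoto cells, proteins quantified by TMT10plex mass spectrometry, three biological replicates, mitosis taken 0.5 h after nocodazole release, G1/S directly after double thymidine block.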

Sequence	solubility in G1/S (log2) (HeLa Kyoto [1])	melting temperature (HeLa Kyoto [2]; cell cycle stage: G1/S) [°C]	melting temperature (HeLa Kyoto [2]; cell cycle stage: mitosis) [°C]	solubility change mitosis (log2) (HeLa Kyoto [3])	thermal stability score (HeLa Kyoto [4]; [5])	thermal stability score (HeLa Kyoto [4]; cell cycle stage: mitosis)
MQRRGALFGMPGGSGGRKMAAGDIGELLVPHMPTIRVPRSGDRVYKNECAFSYDSPNSEGGLYVCMNTFLAFGREHVERHFRKTGQSVYMHLKRHVREKVRGASGGALPKRRNSKIFLDLDTDDDLNSDDYEYEDEAKLVIFPDHYEIALPNIEELPALVTIACDAVLSSKSPYRKQDPDTWENELPVSKYANNLTQLDNGVRIPPSGWKCARCDLRENLWLNLTDGSVLCGKWFFDSSGGNGHALEHYRDMGYPLAVKLGTITPDGADVYSFQEEEPVLDPHLAKHLAHFGIDMLHMHGTENGLQDNDIKLRVSEWEVIQESGTKLKPMYGPGYTGLKNLGNSCYLSSVMQAIFSIPEFQRAYVGNLPRIFDYSPLDPTQDFNTQMTKLGHGLLSGQYSKPPVKSELIEQVMKEEHKPQQNGISPRMFKAFVSKSHPEFSSNRQQDAQEFFLHLVNLVERNRIGSENPSDVFRFLVEERIQCCQTRKVRYTERVDYLMQLPVAMEAATNKDELIAYELTRREAEANRRPLPELVRAKIPFSACLQAFSEPENVDDFWSSALQAKSAGVKTSRFASFPEYLVVQIKKFTFGLDWVPKKFDVSIDMPDLLDINHLRARGLQPGEEELPDISPPIVIPDDSKDRLMNQLIDPSDIDESSVMQLAEMGFPLEACRKAVYFTGNMGAEVAFNWIIVHMEEPDFAEPLTMPGYGGAASAGASVFGASGLDNQPPEEIVAIITSMGFQRNQAIQALRATNNNLERALDWIFSHPEFEEDSDFVIEMENNANANIISEAKPEGPRVKDGSGTYELFAFISHMGTSTMSGHYICHIKKEGRWVIYNDHKVCASERPPKDLGYMYFYRRIPS [USP13]	0.0742	50	50.2	-0.0974	0.321	0.746
MSSVAVLTQESFAEHRSGLVPQQIKVATLNSEEESDPPTYKDAFPPLPEKAACLESAQEPAGAWGNKIRPIKASVITQVFHVPLEERKYKDMNQFGEGEQAKICLEIMQRTGAHLELSLAKDQGLSIMVSGKLDAVMKARKDIVARLQTQASATVAIPKEHHRFVIGKNGEKLQDLELKTATKIQIPRPDDPSNQIKITGTKEGIEKARHEVLLISAEQDKRAVERLEVEKAFHPFIAGPYNRLVGEIMQETGTRINIPPPSVNRTEIVFTGEKEQLAQAVARIKKIYEEKKKKTTTIAVEVKKSQHKYVIGPKGNSLQEILERTGVSVEIPPSDSISETVILRGEPEKLGQALTEVYAKANSFTVSSVAAPSWLHRFIIGKKGQNLAKITQQMPKVHIEFTEGEDKITLEGPTEDVNVAQEQIEGMVKDLINRMDYVEINIDHKFHRHLIGKSGANINRIKDQYKVSVRIPPDSEKSNLIRIEGDPQGVQQAKRELLELASRMENERTKDLIIEQRFHRTIIGQKGERIREIRDKFPEVIINFPDPAQKSDIVQLRGPKNEVEKCTKYMQKMVADLVENSYSISVPIFKQFHKNIIGKGGANIKKIREESNTKIDLPAENSNSETIIITGKRANCEAARSRILSIQKDLANIAEVEVSIPAKLHNSLIGTKGRLIRSIMEECGGVHIHFPVEGSGSDTVVIRGPSSDVEKAKKQLLHLAEEKQTKSFTVDIRAKPEYHKFLIGKGGGKIRKVRDSTGARVIFPAAEDKDQDLITIIGKEDAVREAQKELEALIQNLDNVVEDSMLVDPKHHRHFVIRRGQVLREIAEEYGGVMVSFPRSGTQSDKVTLKGAKDCVEAAKKRIQEIIEDLEAQVTLECAIPQKFHRSVMGPKGSRIQQITRDFSVQIKFPDREENAVHSTEPVVQENGDEAGEGREAKDCDPGSPRRCDIIIISGRKEKCEAAKEALEALVPVTIEVEVPFDLHRYVIGQKGSGIRKMMDEFEVNIHVPAPELQSDIIAITGLAANLDRAKAGLLERVKELQAEQEDRALRSFKLSVTVDPKYHPKIIGRKGAVITQIRLEHDVNIQFPDKDDGNQPQDQITITGYEKNTEAARDAILRIVGELEQMVSEDVPLDHRVHARIIGARGKAIRKIMDEFKVDIRFPQSGAPDPNCVTVTGLPENVEEAIDHILNLEEEYLADVVDSEALQVYMKPPAHEEAKAPSRGFVVRDAPWTASSSEKAPDMSSSEEFPSFGAQVAPKTLPWGPKR [HDLBP]	0.183	46.8	47.6	-0.084	1.14	3.41
MSQVLFHQLVPLQVKCKDCEERRVSIRMSIELQSVSNPVHRKDLVIRLTDDTDPFFLYNLVISEEDFQSLKFQQGLLVDFLAFPQKFIDLLQQCTQEHAKEIPRFLLQLVSPAAILDNSPAFLNVVETNPFKHLTHLSLKLLPGNDVEIKKFLAGCLKCSKEEKLSLMQSLDDATKQLDFTRKTLAEKKQELDKLRNEWASHTAALTNKHSQELTNEKEKALQAQVQYQQQHEQQKKDLEILHQQNIHQLQNRLSELEAANKDLTERKYKGDSTIRELKAKLSGVEEELQRTKQEVLSLRRENSTLDVECHEKEKHVNQLQTKVAVLEQEIKDKDQLVLRTKEAFDTIQEQKVVLEENGEKNQVQLGKLEATIKSLSAELLKANEIIKKLQGDLKTLMGKLKLKNTVTIQQEKLLAEKEEKLQKEQKELQDVGQSLRIKEQEVCKLQEQLEATVKKLEESKQLLKNNEKLITWLNKELNENQLVRKQDVLGPSTTPPAHSSSNTIRSGISPNLNVVDGRLTYPTCGIGYPVSSAFAFQNTFPHSISAKNTSHPGSGTKVQFNLQFTKPNASLGDVQSGATISMPCSTDKENGENVGLESKYLKKREDSIPLRGLSQNLFSNSDHQRDGTLGALHTSSKPTALPSASSAYFPGQLPNS [SASS6]	0.537	48.2	49.3	-0.0259	0.985	0.832
MALTSFLPAPTQLSQDQLEAEEKARSQRSRQTSLVSSRREPPPYGYRKGWIPRLLEDFGDGGAFPEIHVAQYPLDMGRKKKMSNALAIQVDSEGKIKYDAIARQGQSKDKVIYSKYTDLVPKEVMNADDPDLQRPDEEAIKEITEKTRVALEKSVSQKVAAAMPVRAADKLAPAQYIRYTPSQQGVAFNSGAKQRVIRMVEMQKDPMEPPRFKINKKIPRGPPSPPAPVMHSPSRKMTVKEQQEWKIPPCISNWKNAKGYTIPLDKRLAADGRGLQTVHINENFAKLAEALYIADRKAREAVEMRAQVERKMAQKEKEKHEEKLREMAQKARERRAGIKTHVEKEDGEARERDEIRHDRRKERQHDRNLSRAAPDKRSKLQRNENRDISEVIALGVPNPRTSNEVQYDQRLFNQSKGMDSGFAGGEDEIYNVYDQAWRGGKDMAQSIYRPSKNLDKDMYGDDLEARIKTNRFVPDKEFSGSDRRQRGREGPVQFEEDPFGLDKFLEEAKQHGGSKRPSDSSRPKEHEHEGKKRRKE [SNW1]	-0.328	52.3	50.8	0.482	0.202	-3.38
MASGQGPGPPRQECGEPALPSASEEQVAQDTEEVFRSYVFYRHQQEQEAEGVAAPADPEMVTLPLQPSSTMGQVGRQLAIIGDDINRRYDSEFQTMLQHLQPTAENAYEYFTKIATSLFESGINWGRVVALLGFGYRLALHVYQHGLTGFLGQVTRFVVDFMLHHCIARWIAQRGGWVAALNLGNGPILNVLVVLGVVLLGQFVVRRFFKS [BAK1]	-0.215	–	55.7	-0.0672	-0.0676	-0.207
MSAQAQMRALLDQLMGTARDGDETRQRVKFTDDRVCKSHLLDCCPHDILAGTRMDLGECTKIHDLALRADYEIASKERDLFFELDAMDHLESFIAECDRRTELAKKRLAETQEEISAEVSAKAEKVHELNEEIGKLLAKAEQLGAEGNVDESQKILMEVEKVRAKKKEAEEEYRNSMPASSFQQQKLRVCEVCSAYLGLHDNDRRLADHFGGKLHLGFIQIREKLDQLRKTVAEKQEKRNQDRLRRREEREREERLSRRSGSRTRDRRRSRSRDRRRRRSRSTSRERRKLSRSRSRDRHRRHRSRSRSHSRGHRRASRDRSAKYKFSRERASREESWESGRSERGPPDWRLESSNGKMASRRSEEKEAGEI [LUC7L]	-0.598	50.1	51.4	0.353	1.93	1.87
MAAATGPSFWLGNETLKVPLALFALNRQRLCERLRKNPAVQAGSIVVLQGGEETQRYCTDTGVLFRQESFFHWAFGVTEPGCYGVIDVDTGKSTLFVPRLPASHATWMGKIHSKEHFKEKYAVDDVQYVDEIASVLTSQKPSVLLTLRGVNTDSGSVCREASFDGISKFEVNNTILHPEIVECRVFKTDMELEVLRYTNKISSEAHREVMKAVKVGMKEYELESLFEHYCYSRGGMRHSSYTCICGSGENSAVLHYGHAGAPNDRTIQNGDMCLFDMGGEYYCFASDITCSFPANGKFTADQKAVYEAVLRSSRAVMGAMKPGVWWPDMHRLADRIHLEELAHMGILSGSVDAMVQAHLGAVFMPHGLGHFLGIDVHDVGGYPEGVERIDEPGLRSLRTARHLQPGMVLTVEPGIYFIDHLLDEALADPARASFLNREVLQRFRGFGGVRIEEDVVVTDSGIELLTCVPRTVEEIEACMAGCDKAFTPFSGPK [PEPD]	-0.0689	54.1	53.8	-0.184	-1.19	-2.41
MAVLLETTLGDVVIDLYTEERPRACLNFLKLCKIKYYNYCLIHNVQRDFIIQTGDPTGTGRGGESIFGQLYGDQASFFEAEKVPRIKHKKKGTVSMVNNGSDQHGSQFLITTGENLDYLDGVHTVFGEVTEGMDIIKKINETFVDKDFVPYQDIRINHTVILDDPFDDPPDLLIPDRSPEPTREQLDSGRIGADEEIDDFKGRSAEEVEEIKAEKEAKTQAILLEMVGDLPDADIKPPENVLFVCKLNPVTTDEDLEIIFSRFGPIRSCEVIRDWKTGESLCYAFIEFEKEEDCEKAFFKMDNVLIDDRRIHVDFSQSVAKVKWKGKGGKYTKSDFKEYEKEQDKPPNLVLKDKVKPKQDTKYDLILDEQAEDSKSSHSHTSKKHKKKTHHCSEEKEDEDYMPIKNTNQDIYREMGFGHYEEEESCWEKQKSEKRDRTQNRSRSRSRERDGHYSNSHKSKYQTDLYERERSKKRDRSRSPKKSKDKEKSKYR [PPIL4]	-0.23	49.2	50.3	0.0472	1.3	1.99
MFLVNSFLKGGGGGGGGGGGLGGGLGNVLGGLISGAGGGGGGGGGGGGGGGGGGGGTAMRILGGVISAISEAAAQYNPEPPPPRTHYSNIEANESEEVRQFRRLFAQLAGDDMEVSATELMNILNKVVTRHPDLKTDGFGIDTCRSMVAVMDSDTTGKLGFEEFKYLWNNIKRWQAIYKQFDTDRSGTICSSELPGAFEAAGFHLNEHLYNMIIRRYSDESGNMDFDNFISCLVRLDAMFRAFKSLDKDGTGQIQVNIQEWLQLTMYS [CAPNS1]	0.395	55.4	55	-0.0652	1.02	1.65
MLPNTGRLAGCTVFITGASRGIGKAIALKAAKDGANIVIAAKTAQPHPKLLGTIYTAAEEIEAVGGKALPCIVDVRDEQQISAAVEKAIKKFGGIDILVNNASAISLTNTLDTPTKRLDLMMNVNTRGTYLASKACIPYLKKSKVAHILNISPPLNLNPVWFKQHCAYTIAKYGMSMYVLGMAEEFKGEIAVNALWPKTAIHTAAMDMLGGPGIESQCRKVDIIADAAYSIFQKPKSFTGNFVIDENILKEEGIENFDVYAIKPGHPLQPDFFLDEYPEAVSKKVESTGAVPEFKEEKLQLQPKPRSGAVEETFRIVKDSLSDDVVKATQAIYLFELSGEDGGTWFLDLKSKGGNVGYGEPSDQADVVMSMTTDDFVKMFSGKLKPTMAFMSGKLKIKGNMALAIKLEKLMNQMNARL [HSDL2]	0.296	51.5	52.5	-0.109	-0.828	0.589
